# B1: Akkermansia muciniphila-derived threonyl-tRNA synthetase (TARS) (protein)
# chain: MSEHKERKTLEERQQMSDLERLRHSCAHVLATAICRLWPDAQLAGGPAVDNGFYYDVELDHRISTEDFERIEEEMKKVVKENQVFQKEVISRADAMKMAESGELGALGPRSEPSRFKIDLLNDIPEDEEISLYRNGDFTDLCAGPHVGRTGNCKAFKIMSVASAFYKGDKNRPMLQRIYGTCFPNRTQLDEHLERLEEARRRDHRKLGRELGLFCIDESVGQGLILWKPKGALIRRSLQDFITEELDKLGYSQVYTPNIGKLDLYRTSGHFPYYQESQYAPIPERDAMEKLSQEGASCAELFNGLATGTIEGYMLKPMNCPHHIKIYANDAHSYRDLPVRLAEFGTVYRWEQSGELGGMTRVRGFTQDDAHIFCTPDQLAGEIRQCLGIVKTIFGTLGMTDYRVRLSMRDPESDKYVGSPENWDKAEQALREAAEWLGADYSEEAGEAAFYGPKIDFIVRDAIGREWQLGTVQVDYNLPERFDLHYTGADNKPHRPVMVHRAPFGSMERFTGLLIEHFEGKFPTWLSPEQVRVLPISDKVTDVAAAHRTALAARGVRVTVDETPDKIGAKIRNARLDRVPYMLVLGQREAEDGTVSVRHRDKGDLGAMPFEQFADLVAREIAERHISPVI
# modifications: Akkermansia muciniphila TARS
# Legend:
# TLR4 = biological target: T1, TLR4 (Homo sapiens, UniProt O00206); assay: Pull-down assay with TLR4 in HEK 293T cells; format: binding; settings: Strep-AmTARS and TLR4-FLAG
# T1 construct: FLAG (C); expressed in transfected cells; host or cells: HEK 293T
# T1 sequence (O00206 24-839): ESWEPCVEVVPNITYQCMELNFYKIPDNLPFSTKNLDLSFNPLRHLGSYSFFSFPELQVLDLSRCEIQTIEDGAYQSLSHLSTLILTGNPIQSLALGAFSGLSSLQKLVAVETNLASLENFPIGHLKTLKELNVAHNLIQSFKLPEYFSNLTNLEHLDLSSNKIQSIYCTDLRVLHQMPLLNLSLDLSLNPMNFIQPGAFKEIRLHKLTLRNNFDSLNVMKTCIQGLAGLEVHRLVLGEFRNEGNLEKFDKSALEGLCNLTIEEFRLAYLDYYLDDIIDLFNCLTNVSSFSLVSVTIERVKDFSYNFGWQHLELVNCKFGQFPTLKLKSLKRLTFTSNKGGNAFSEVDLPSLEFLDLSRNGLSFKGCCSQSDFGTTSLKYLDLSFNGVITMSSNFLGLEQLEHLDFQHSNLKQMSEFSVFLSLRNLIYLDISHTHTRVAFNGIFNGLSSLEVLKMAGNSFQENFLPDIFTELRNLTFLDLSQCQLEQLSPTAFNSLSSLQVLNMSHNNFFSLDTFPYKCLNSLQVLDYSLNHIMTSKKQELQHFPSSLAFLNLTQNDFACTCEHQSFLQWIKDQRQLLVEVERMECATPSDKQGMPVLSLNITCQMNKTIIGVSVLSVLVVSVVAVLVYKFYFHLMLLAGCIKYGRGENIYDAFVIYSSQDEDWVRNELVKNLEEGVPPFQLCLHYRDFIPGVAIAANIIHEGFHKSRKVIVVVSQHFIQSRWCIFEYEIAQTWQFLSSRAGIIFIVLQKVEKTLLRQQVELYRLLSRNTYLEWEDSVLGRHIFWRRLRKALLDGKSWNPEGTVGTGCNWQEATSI
# From the text: (A) AmTARS-interacting candidates identified from membrane protein interactome analysis. Potential interactors (receptors) involved in innate immunity are indicated in red. (B-D) Pull-down of Strep-AmTARS co-expressed with NLRX1-FLAG (B), CD163-FLAG (C), and TLR4-FLAG (D) in HEK 293T cells. Data shown are representative of three independent experiments, each with similar results.
# Then, Strep-tagged AmTARS, AmTARS having deletions of two functional site (AmTARSΔ1Δ2), and FLAG-tagged TLR2 were transduced into human-derived HEK 293T cells through PEI, and thereafter, the cells were lysed using a lysis buffer containing 50 mM Tris-HCl (pH 7.5), 100 mM NaCl, 1% NP-40, 1 mM EDTA, 0.25% Na-deoxycholate, and a protease inhibitor cocktail. The cell lysates each were incubated with Strep Tactin beads and washed with a buffer containing 137 mM NaCl, 2.7 mM KCl, 10 mM Na2HPO4, 1.8 mM KH2PO4, and 1 mM EDTA, and proteins attached to the beads were eluted and analyzed by immunoblotting.
# BMDMs = assay: Immunoblotting of AmTARS/TLR2-induced signaling molecules in BMDMs; format: cell-based, mouse
# Method: (A and B) Analysis of key molecules that inhibit the MAPK and PI3K/AKT signaling pathways. IL-10 produced by BMDMs pre-treated with inhibitors of ERK (PD98059, […]), p38 (SB203580, […]), MSK1/2 (SB747651A, 10 μM), CREB (666-15, 1 μM), PI3K (Wortmannin, 10 μM), and AKT1/2 (AKT1/2, 10 μM) for 1 h before treatment with either PBS or AmTARS for 24 h (n=6 per group) (A). Flow cytometry analysis of M2 macrophages in BMDMs pre-treated for 1 h with the indicated kinase inhibitors, before treatment with either PBS or AmTARS for 24 h (n=3 per group) (B). (C and D) Western blot analysis of MAPK signaling molecules in lysates of BMDMs (C) or THP1 cells (D) treated for different times with 0.5 μM AmTARS. (E) Western blot analysis of lysates of BMDMs pre-treated with α-IgG (Isotype, 1 μg ml-1) or α-TLR2 (1 μg ml-1) for 1 h before treatment with PBS, AmTARS (0.5 μM), or Pam3 (0.5 μM) for 30 min. (F and G) Western blot analysis of PI3K/AKT signaling molecules in lysates of BMDMs (F) or THP1 cells (G) treated with 0.5 μM AmTARS. (H) AmTARS activates both TLR2/1- and TLR2/6-mediated signaling. Activation of AKT, ERK, and CREB was measured by western blot analysis of lysates of THP1 cells pre-treated with α-IgG, α-TLR1, α-TLR2, or α-TLR6 (1 μg ml-1) for 1 h before treatment for 30 min with PBS or AmTARS (0.5 µM). Data shown in (A and B) are representative of three independent experiments, each with similar results (mean±SEM). P-values were calculated using an unpaired two-tailed Student's t-test. Data shown in (C-H) are representative and repeated at least three times.
# Subsequently, we conducted immunoblotting assays to measure the time-dependent activation of AmTARS/TLR2-induced signaling molecules in both BMDMs and THP1 cells. AmTARS rapidly activated ERK, p38, and MSK1/2 within 15 min and, subsequently, phosphorylation of CREB at Ser133 (which is essential for IL-10 production) within 30 min in BMDMs (FIG. 31C) and THP1 cells (FIG. 31D). We then compared AmTARS-triggered TLR2 signaling with typical ligand-triggered signaling using Pam3CSK4 (the synthetic canonical TLR2/1 agonist, referred to hereafter as Pam3) in BMDMs stimulated for 30 min. […] By contrast, activation of NF-κB was greater in Pam3-treated BMDMs than in AmTARS-treated BMDMs (FIG. 31E).
# [1] = tested on: Tg (NFκB:EGFP) zebrafish transgenic line; assay: NF-κB activity in DSS-treated Tg (NFκB:EGFP) zebrafish larvae; format: in vivo; settings: yolk injection at 3 dpf, 0.5% DSS, analysis at 6 dpf
# Method: (A-E) Global gene expression analysis. Total mRNA from BMDMs treated with either AmTARS (0.5 μM) or Pam3 (10 ng ml-1) for 1 or 3 h was isolated and analyzed by RNA sequencing (A). Principle components analysis (PCA) of the gene expression profiles for each sample (B). Hierarchical clustering of gene expression profiles from each sample identified cluster 3 and 4 (C). Gene set enrichment analysis (GSEA) of clusters 3 and 4 with respect to terms related to inflammation (D). […] (F) Overview of the experimental procedures for zebrafish. The yolk of Tg (NFκB:EGFP) transgenic zebrafish larvae (3 dpf) was injected with PBS or AmTARS. Injected larvae were treated at 3 and 5 dpf with 0.5% DSS for 24 h, with a washing period with fresh water for 24 h in between. Sample collection and analysis of Tg (NFκB:EGFP)-based EGFP intensity were conducted at 6 dpf. (G) Representative confocal images showing NF-κB signaling in the mid-distal intestines of PBS- or AmTARS-injected larvae with or without DSS treatment. White dashed lines denote the boundaries of the intestines (based on merged DIC bright field images). (H) Bar graph comparing the fluorescence intensity of the mid-distal intestines of PBS- or AmTARS-injected larvae treated (or not) with DSS (n=32 per PBS group and n=35 per DSS group). […] P-values were calculated by unpaired and two-tailed Student's t-test. […]
molecule,measurement,setting,value
B1,interaction with TLR4 (pull-down),TLR4,no interaction
same,"activation of CREB, AmTARS versus Pam3","BMDMs; BMDMs stimulated for 30 min, 0.5 μM",significantly greater
same,time to activation of AKT,"BMDMs; BMDMs, 0.5 μM AmTARS",≤ 15 min
same,time to activation of ERK,"BMDMs; BMDMs, 0.5 μM AmTARS",≤ 15 min
same,time to activation of MSK1/2,"BMDMs; BMDMs, 0.5 μM AmTARS",≤ 15 min
same,time to activation of PI3K,"BMDMs; BMDMs, 0.5 μM AmTARS",≤ 15 min
same,time to activation of p38,"BMDMs; BMDMs, 0.5 μM AmTARS",≤ 15 min
same,time to inhibition of GSK3β activity (phosphorylation at Ser9),"BMDMs; BMDMs, 0.5 μM AmTARS",≤ 15 min
same,time to phosphorylation of CREB at Ser133,"BMDMs; BMDMs, 0.5 μM AmTARS",≤ 30 min
same,NF-κB activity in the distal intestine induced by repeated DSS treatment,[1],significantly dampened

# Source: patent US12636342B2, “TARS derived from Akkermansia muciniphila or fragment thereof, and use thereof” (KOREA RESEARCH INSTITUTE OF BIOSCIENCE AND BIOTECHNOLOGY, priority 2020, dated 2026)
